The values below come from patent US20220403048A1 (CANCER RESEARCH TECHNOLOGY, published 2022).

Experiment [1] concerns the target T1, recombinant human trimeric ARG2 enzyme (construct not given) (human, UniProt P78540 23-354).
T1 sequence (looked up): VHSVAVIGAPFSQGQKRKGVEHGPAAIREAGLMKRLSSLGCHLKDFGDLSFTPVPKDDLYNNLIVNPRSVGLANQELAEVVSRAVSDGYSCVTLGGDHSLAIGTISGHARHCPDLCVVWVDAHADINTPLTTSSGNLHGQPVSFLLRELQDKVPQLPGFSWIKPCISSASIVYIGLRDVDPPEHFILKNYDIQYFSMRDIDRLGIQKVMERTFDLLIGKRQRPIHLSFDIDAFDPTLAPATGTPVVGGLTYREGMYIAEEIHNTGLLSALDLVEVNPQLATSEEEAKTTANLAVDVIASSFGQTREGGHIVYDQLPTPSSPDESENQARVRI
Kind of experiment: cell-based or functional assay.

In experiment [2] the target is T2, biotinylated recombinant human trimeric ARG2 enzyme (Avi-huARG2-His10) (human, UniProt P78540 23-354, biotinylated).
T2 construct: also called avi-Arg2-His10; bio-ARG2
T2 chain: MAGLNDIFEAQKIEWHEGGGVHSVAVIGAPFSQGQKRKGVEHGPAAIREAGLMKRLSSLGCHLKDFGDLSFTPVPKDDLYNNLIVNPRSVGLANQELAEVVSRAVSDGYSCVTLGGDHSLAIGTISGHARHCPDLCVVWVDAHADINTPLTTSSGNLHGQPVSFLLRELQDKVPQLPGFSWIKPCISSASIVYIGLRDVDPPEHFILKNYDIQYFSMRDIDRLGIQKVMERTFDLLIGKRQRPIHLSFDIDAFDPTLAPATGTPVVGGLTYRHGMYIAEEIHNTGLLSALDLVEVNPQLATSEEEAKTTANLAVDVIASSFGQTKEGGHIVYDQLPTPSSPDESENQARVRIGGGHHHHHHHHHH
Kind of experiment: HTRF epitope competition, scFv titrated, competitor C0020187 IgG, on biotinylated human trimeric ARG2. For orientation: In TR-FRET formats the signal depends on donor and acceptor labels being close together.

Experiment [3] concerns the target T2, biotinylated recombinant human trimeric …. Kind of experiment: BLI (OctetRED), biotinylated ARG2 on streptavidin, Fab as analyte. Here is the method: An Octet Kinetics Buffer (PBS containing 0.01% BSA and 0.002% Tween20) is typically used as the diluent buffer for the analyte samples and as the flow buffer during the dissociation phase. The experimental data is recorded over time as shift in interference pattern (nm) over time, which is directly proportional to the optical thickness at the biosensor tip, which in turn is an approximate measure of the mass of analyte bound. The proprietary Octet Data Analysis software package can then be used to process data and fit binding models to the data sets. Returned association (kₐ, M⁻¹ s⁻¹) and dissociation (kd, s⁻¹) rate constants allow calculation of dissociation (KD, M) affinity constants.
Typically, an analyte titration range of 1.8 to 120 nM was used.

B1: C0021017 scFv (scFv, V domains shown)
VH: EVQLLESGGGLVQPGGSLRLSCAASGFTFYPEYELWVRQAPGKGLEWVSAISGSGGSTYYADSVKGRFTISRDNSKNTLYLQMNSLRAEDTAVYYCARLRADLGLYMDLWGRGTLVTVSS
VL: QSVLTQPPSVSAAPGQKVTISCSGSSSNIGNHYVSWYQQLPGTAPKLLIYDNSERPSGIPDRFSGSKSGTSATLGITGLQTGDEADYYCGTWDSSLSALVFGGGTKLTVL
notes: scFv
For orientation: IC50 means the midpoint of a concentration-inhibition curve. For B1, in experiment [1], the “Trimeric human ARG2 EIA IC50” value turned out to be 226 nM. Besides, in experiment [2], the IC50 turned out to be 122 nM.

B2: C0021141 Fab (Fab, V domains shown)
VH: EVQLLESGGGLVQPGGSLRLSCAASGFTFYPDPQGWVRQAPGKGLEWVSAYGYGIGSTYYADSVKGRFTISRDNSKNTLYLQMNSLRAEDTAVYYCARLRADLGLYMDLWGRGTLVTVSS
VL: QSVLTQPPSVSAAPGQEVTISCSGSSSNIDNHYVSWYQQLPGTAPKLLIYDNSERPSGIPDRFSGSKSGTSATLGITGLQTGDEADYYCGTWDSSLSALVFGGGTKLTVL
notes: Human Fab
The term Kd denotes the equilibrium constant for the complex coming apart. For orientation: koff means a measure of how fast the partners let go of each other. A word on the kon: it is the second-order rate constant of association. For the molecule B2, in experiment [3], the Kd came out at 3.33 nM, the koff was found to be 0.00108 s⁻¹ and the kon was 326000 M⁻¹ s⁻¹.

B3: C0021097 scFv (scFv, V domains shown)
VH: EVQLLESGGGLVQPGGSLRLSCAASGFTFSSYAMSWVRQAPGKGLEWVSAISYHPGSTYYADSVKGRFTISRDNSKNTLYLQMNSLRAEDTAVYYCARLRADLGLYMDLWGRGTLVTVSS
VL: QSVLTQPPSVSAAPGQKVTISCSGSSSNIGNHYVSWYQQLPGTAPKLLIYNTFARPSGIPDRFSGSKSGTSATLGITGLQTGDEADYYCGTWDSSLSALVFGGGTKLTVL
notes: scFv
B3: the “Trimeric human ARG2 EIA IC50” value in experiment [1] was 99.1 nM. Besides, the IC50 in experiment [2] turned out to be 27.5 nM.

B4: C0021118 Fab (Fab, V domains shown)
VH: EVQLLESGGGLVQPGGSLRLSCAASGFTFSSYAMSWVRQAPGKGLEWVSASLTNPGSTYYADSVKGRFTISRDNSKNTLYLQMNSLRAEDTAVYYCARLRADLGLYMDLWGRGTLVTVSS
VL: QSVLTQPPSVSAAPGQKVTISCSGSSSNIGNHYVSWYQQLPGTAPKLLIYDNSERPSGIPDRFSGSKSGTSATLGITGLQTGDEADYYCATYDTNLSALVFGGGTKLTVL
notes: Human Fab
As for B4, in experiment [3], the Kd was 8.23 nM, the koff was found to be 0.00114 s⁻¹ and the kon worked out at 139000 M⁻¹ s⁻¹.

B5: C0021021 scFv (scFv, V domains shown)
VH: EVQLLESGGGLVQPGGSLRLSCAASGFTFSSYAMSWVRQAPGKGLEWVSSILFSPGSTYYADSVKGRFTISRDNSKNTLYLQMNSLRAEDTAVYYCARLRADLGLYMDLWGRGTLVTVSS
VL: QSVLTQPPSVSAAPGQKVTISCSGSSSNIGNHYVSWYQQLPGTAPKLLIYDNSERPSGIPDRFSGSKSGTSATLGITGLQTGDEADYYCGTWDSSLSALVFGGGTKLTVL
notes: scFv
Take B5: the “Trimeric human ARG2 EIA IC50” value in experiment [1] is 151 nM. For the same molecule, the IC50 in experiment [2] amounted to 58.7 nM.

B6: C0021032 scFv (scFv, V domains shown)
VH: EVQLLESGGGLVQPGGSLRLSCAASGFTFSSYAMSWVRQAPGKGLEWVSAYGYGIGSTYYADSVKGRFTISRDNSKNTLYLQMNSLRAEDTAVYYCARLRADLGLYMDLWGRGTLVTVSS
VL: QSVLTQPPSVSAAPGQKVTISCSGSSSNIGNHYVSWYQQLPGTAPKLLIYDNSERPSGIPDRFSGSKSGTSATLGITGLQTGDEADYYCGTWDSSLSALVFGGGTKLTVL
notes: scFv
For B6, the “Trimeric human ARG2 EIA IC50” value in experiment [1] was found to be 211 nM. In experiment [2], the IC50 stood at 67 nM.

B7: C0021096 Fab (Fab, V domains shown)
VH: EVQLLESGGGLVQPGGSLRLSCAASGFTFSSYAMSWVRQAPGKGLEWVSAISGYSGYYADSVKGRFTISRDNSKNTLYLQMNSLRAEDTAVYYCARLRADLGLYMDLWGRGTLVTVSS
VL: QSVLTQPPSVSAAPGQKVTISCSGSSSNIGNHYVSWYQQLPGTAPKLLIYNTERRMSGIPDRFSGSKSGTSATLGITGLQTGDEADYYCGTWDSSLSALVFGGGTKLTVL
notes: Human Fab
Consider B7, for which, in experiment [3], the Kd stood at 3.48 nM, the koff was found to be 0.00154 s⁻¹ and the kon came to 441000 M⁻¹ s⁻¹.

B8: C0021032 Fab (Fab, V domains shown)
VH: EVQLLESGGGLVQPGGSLRLSCAASGFTFSSYAMSWVRQAPGKGLEWVSAYGYGIGSTYYADSVKGRFTISRDNSKNTLYLQMNSLRAEDTAVYYCARLRADLGLYMDLWGRGTLVTVSS
VL: QSVLTQPPSVSAAPGQKVTISCSGSSSNIGNHYVSWYQQLPGTAPKLLIYDNSERPSGIPDRFSGSKSGTSATLGITGLQTGDEADYYCGTWDSSLSALVFGGGTKLTVL
notes: Human Fab
As to B8, in experiment [3], the Kd stood at 5.33 nM, the koff amounted to 0.00228 s⁻¹ and the kon was 427000 M⁻¹ s⁻¹.

B9: C0021061 scFv (scFv, V domains shown)
VH: EVQLLESGGGLVQPGGSLRLSCAASGFTFSSYAMSWVRQAPGKGLEWVSAKPTDAGSTYYADSVKGRFTISRDNSKNTLYLQMNSLRAEDTAVYYCARLRADLGLYMDLWGRGTLVTVSS
VL: QSVLTQPPSVSAAPGQKVTISCSGSSSNIGNHYVSWYQQLPGTAPKLLIYNTVYPKSGIPDRFSGSKSGTSATLGITGLQTGDEADYYCGTWDSSLSALVFGGGTKLTVL
notes: scFv
In the case of B9, the “Trimeric human ARG2 EIA IC50” value in experiment [1] was found to be 110 nM. For the same molecule, the IC50 in experiment [2] amounted to 101 nM.

B10: C0021092 scFv (scFv, V domains shown)
VH: EVQLLESGGGLVQPGGSLRLSCAASGFTFSRYAMSWVRQAPGKGLEWVSAHTHSPGSTYYADSVKGRFTISRDNSKNTLYLQMNSLRAEDTAVYYCARLRADLGLYMDLWGRGTLVTVSS
VL: QSVLTQPPSVSAAPGQKVTISCSGSSSNIGNHYVSWYQQLPGTAPKLLIYNSVARPSGIPDRFSGSKSGTSATLGITGLQTGDEADYYCGTWDSSLSALVFGGGTKLTVL
notes: scFv
Regarding B10, the “Trimeric human ARG2 EIA IC50” value in experiment [1] worked out at 159 nM. Moreover, the IC50 in experiment [2] came out at 130 nM.

B11: C0021089 scFv (scFv, V domains shown)
VH: EVQLLESGGGLVQPGGSLRLSCAASGFTFPYEYWSWVRQAPGKGLEWVSAISGSGGSTYYADSVKGRFTISRDNSKNTLYLQMNSLRAQDTAVYYCARLRADLGLYMDLWGRGTLVTVSS
VL: QSVLTQPPSVSAAPGQKVTISCSGSSSNIGNHYVSWYQQLPGTAPKLLIYDNSERPSGIPDRFSGSKSGTSATLGITGLQTGDEADYYCGTWDPTVSRLVFGGGTKLTVL
notes: scFv
For B11, in experiment [1], the “Trimeric human ARG2 EIA IC50” value is 71.5 nM. Also, in experiment [2], the IC50 turned out to be 133 nM.

B12: C0021101 Fab (Fab, V domains shown)
VH: EVQLLESGGGLVQPGGSLRLSCAASGFTFSSYAMSWVRQAPGKGPEWVSAISGFSPYYADSVKGRFTISRDNSKNTLYLQMNSLRAEDTAVYYCARLRADLGLYMDLWGRGTLVTVSS
VL: QSVLTQPPSVSAAPGQKVTISCSGSSSNIGNHYVSWYQQLPGTAPKLLIYNNRSPTSGIPDRFSGSKSGTSATLGITGLQTGDEADYYCGTWDSSLSALVFGGGTKLTVL
notes: Human Fab
Regarding B12, in experiment [3], the Kd came out at 3.41 nM, the koff turned out to be 0.00107 s⁻¹ and the kon is 314000 M⁻¹ s⁻¹.

B13: C0021142 Fab (Fab, V domains shown)
VH: EVQLLESGGGLVQPGGSLRLSCAASGFTFSSYAMSWVRQAPGKGLEWVSAHTHSPGSTYYADSVKGRFTISRDNSKNTLYLQMNSLRAEDTAVYYCARLRADLGLYMDLWGRGTLVTVSS
VL: QSVLTQPPSVSAAPGQKVTISCSGSSSNIGNHYVSWYQQLPGTAPKLLIYDNSERPSGIPDRFSGSKSGTSATLGITGLQTGDEADYYCGTWDSSLSALVFGGGTKLTVL
notes: Human Fab
As for B13, in experiment [3], the Kd was 2.77 nM, the koff was 0.0011 s⁻¹ and the kon worked out at 399000 M⁻¹ s⁻¹.

B14: C0021021 Fab (Fab, V domains shown)
VH: EVQLLESGGGLVQPGGSLRLSCAASGFTFSSYAMSWVRQAPGKGLEWVSSILFSPGSTYYADSVKGRFTISRDNSKNTLYLQMNSLRAEDTAVYYCARLRADLGLYMDLWGRGTLVTVSS
VL: QSVLTQPPSVSAAPGQKVTISCSGSSSNIGNHYVSWYQQLPGTAPKLLIYDNSERPSGIPDRFSGSKSGTSATLGITGLQTGDEADYYCGTWDSSLSALVFGGGTKLTVL
notes: Human Fab
Turning to B14, in experiment [3], the Kd turned out to be 4.24 nM, the koff was found to be 0.002 s⁻¹ and the kon is 473000 M⁻¹ s⁻¹.

B15: C0021097 Fab (Fab, V domains shown)
VH: EVQLLESGGGLVQPGGSLRLSCAASGFTFSSYAMSWVRQAPGKGLEWVSAISYHPGSTYYADSVKGRFTISRDNSKNTLYLQMNSLRAEDTAVYYCARLRADLGLYMDLWGRGTLVTVSS
VL: QSVLTQPPSVSAAPGQKVTISCSGSSSNIGNHYVSWYQQLPGTAPKLLIYNTFARPSGIPDRFSGSKSGTSATLGITGLQTGDEADYYCGTWDSSLSALVFGGGTKLTVL
notes: Human Fab
Regarding B15, in experiment [3], the Kd amounted to 4.95 nM, the koff was found to be 0.00146 s⁻¹ and the kon is 295000 M⁻¹ s⁻¹.
